Experimental data reported in PMC13451967.

Legend:
[1] = molecular target: His-SpNDK H121A mutant (catalytically inactive) (Streptococcus pneumoniae); experiment: mass photometry; Refeyn OneMP; 50 mM HEPES pH 7.4, 150 mM NaCl with ATP or GTP and 5 mM MgCl2, 5 min at 22°C before the analysis
[2] = molecular target: His-SpNDK R28A mutant (Streptococcus pneumoniae); experiment: SEC; Superdex 200 Increase 10/300 GL, 50 mM HEPES pH 7.4, 100 mM NaCl; concentrated sample; molecular weights from a standard curve
[3] = molecular target: Streptococcus pneumoniae nucleoside diphosphate kinase with an N-terminal hexa-histidine tag (His-SpNDK), wild type (Streptococcus pneumoniae); experiment: as above
[4] = molecular target: Streptococcus pneumoniae nucleoside diphosphate kinase with an N-terminal hexa-histidine tag (His-SpNDK), wild type (Streptococcus pneumoniae); experiment: mass photometry; Refeyn OneMP; His-SpNDK diluted to 200 nM, 5 µL added to 15 µL of buffer; 50 mM HEPES pH 7.4, 100 mM NaCl; no nucleotide (ADP or GDP had no significant effect on the wild type)

“His-SpNDK H121A mutant (catalytically inactive) (enzyme)” was tested, and the stoichiometry N [1] was under 6.
For His-SpNDK R28A mutant (enzyme), the stoichiometry N [2] was 2.
Substance “Streptococcus pneumoniae nucleoside diphosphate kinase with an N-terminal hexa-histidine tag (His-SpNDK), wild type (enzyme)” has a stoichiometry N [3] of 18 and a stoichiometry N [4] of 18.
